Assay results taken from patent US20140079716A1 (Biogen, published 2014).
Values joined by “and” are separate entries in the source; they are usually repeats but may differ in a detail not shown here. Identical values can stand only once.

T1: soluble recombinant human lymphotoxin α1β2 (human, UniProt P01374 35-205, limits assumed)
T1 sequence 1: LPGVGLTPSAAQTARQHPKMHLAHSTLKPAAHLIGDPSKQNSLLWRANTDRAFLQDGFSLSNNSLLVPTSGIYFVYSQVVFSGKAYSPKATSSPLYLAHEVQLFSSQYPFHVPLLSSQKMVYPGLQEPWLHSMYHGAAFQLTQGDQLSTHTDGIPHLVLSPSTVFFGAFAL
T1 sequence 2: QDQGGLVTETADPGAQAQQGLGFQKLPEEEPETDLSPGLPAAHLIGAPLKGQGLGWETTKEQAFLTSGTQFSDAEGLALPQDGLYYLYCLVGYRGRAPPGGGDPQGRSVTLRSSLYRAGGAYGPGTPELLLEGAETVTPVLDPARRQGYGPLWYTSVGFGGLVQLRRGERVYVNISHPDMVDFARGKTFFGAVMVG

T2: LTα3 (soluble homotrimer) (UniProt P01374 35-205)
T2 construct: Coated on ELISA plates at 1 or 5 ug/ml; also called LTa3
T2 sequence (looked up): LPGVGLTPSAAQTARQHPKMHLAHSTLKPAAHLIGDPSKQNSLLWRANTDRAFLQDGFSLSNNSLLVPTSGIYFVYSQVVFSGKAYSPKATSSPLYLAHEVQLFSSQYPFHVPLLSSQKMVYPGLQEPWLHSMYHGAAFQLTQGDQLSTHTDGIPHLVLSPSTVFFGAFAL

T3: LTα1β2 on the surface of PMA-treated II-23 cells (UniProt P01374 35-205, limits assumed)
T3 construct: whole, on cells; also called surface LT
T3 sequence 1: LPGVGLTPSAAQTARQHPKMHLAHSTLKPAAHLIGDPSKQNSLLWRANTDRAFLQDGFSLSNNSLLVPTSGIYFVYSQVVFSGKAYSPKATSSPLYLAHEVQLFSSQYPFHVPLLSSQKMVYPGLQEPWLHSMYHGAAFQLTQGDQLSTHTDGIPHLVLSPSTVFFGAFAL
T3 sequence 2: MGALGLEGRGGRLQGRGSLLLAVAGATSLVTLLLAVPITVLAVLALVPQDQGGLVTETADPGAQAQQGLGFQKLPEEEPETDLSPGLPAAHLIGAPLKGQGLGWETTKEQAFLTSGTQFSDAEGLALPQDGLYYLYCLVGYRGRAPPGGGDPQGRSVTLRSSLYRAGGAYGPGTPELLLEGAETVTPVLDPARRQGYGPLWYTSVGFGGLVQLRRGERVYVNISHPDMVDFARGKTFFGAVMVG

T4: Soluble Flag-tagged LTα1β2 (UniProt P01374 35-205, limits assumed)
T4 construct: Biacore ligand captured on the anti-Flag antibody M2; the whole LTβ entry is named here; also called Ligand
T4 sequence 1: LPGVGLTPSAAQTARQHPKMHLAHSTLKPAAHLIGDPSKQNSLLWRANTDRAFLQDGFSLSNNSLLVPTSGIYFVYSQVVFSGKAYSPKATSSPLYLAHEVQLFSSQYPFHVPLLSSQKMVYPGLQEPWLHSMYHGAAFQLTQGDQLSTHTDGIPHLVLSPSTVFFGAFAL
T4 sequence 2: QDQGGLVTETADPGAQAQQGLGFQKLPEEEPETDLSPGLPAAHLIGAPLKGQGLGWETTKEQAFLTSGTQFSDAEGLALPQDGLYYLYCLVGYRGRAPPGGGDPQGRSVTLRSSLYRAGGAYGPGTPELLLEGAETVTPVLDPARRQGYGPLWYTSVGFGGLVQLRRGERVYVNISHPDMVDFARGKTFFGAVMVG


Key:
[1] = molecular target: T1, soluble recombinant human lymphotoxin …; experiment: cell-based or functional assay
[2] = molecular target: T2, LTα3 (soluble homotrimer); experiment: ELISA on plate-coated LTα3 (1 or 5 ug/ml)
Protocol: For the LTa3 ELISA, microtiter plates were coated with LTα3 (1 or 5 ug/ml in PBS) then nonspecific binding sites were blocked with a 1% casein buffer. Samples (antibodies, receptor-Ig) were added and binding detected with HRP-conjugated anti-murine Ig antibodies. For assessment of ability of mAbs to block interaction between LTα3 and TNFR-hIg (p55), plates were coated with LTα3 and blocked as described above. Serial dilutions of antibodies were added to plate 30 minutes prior to TNFR-Ig addition. Binding of TNFR-hIg to plate-bound LTα3 was detected with an HPR conjugated anti-human Ig antibody.

[3] = molecular target: T3, LTα1β2 on the surface of PMA-treated …; experiment: FACS, inhibition of biotin-LTβR-Ig binding to PMA-treated II-23 cells
Protocol: (§1) II-23 cells were incubated with 50 ng/ml PMA for 4 hours at 37° C. 5% CO2. The cells were washed and 500,000 cells were added to each well of a 96-well plate. The antibody was diluted to the appropriate concentrations and added to the II-23 cells. After a 30 minute incubation period at 4° C., the biotin labeled LTβR-Ig is added to each well for a final concentration of 1 ug/ml. The cells are incubated at 4° C. for an additional 30 minutes, and then washed 3 times. Streptavidin-PE was diluted to 1/500 and added to each well and incubated for 1 hour at 4° C. The cells were washed once and read by FACS analysis. The mean fluorescence intensity is plotted versus antibody concentrations, and an IC50 is determined from a 4-parameter curve fit of the data.

[4] = molecular target: T3, LTα1β2 on the surface of PMA-treated …; experiment: FACS, inhibition of biotin-LTβR-Ig (1 ug/ml) binding to PMA-treated II-23 cells
Protocol: as §1

[5] = molecular target: T3, LTα1β2 on the surface of PMA-treated …; experiment: competition FACS (II-23 assay): PMA-treated II-23 cells, varied antibody, then biotin-LTβR-Ig at 1 ug/ml, streptavidin-PE; MFI of bound LTβR-Ig
Protocol: as §1

[6] = molecular target: T3, LTα1β2 on the surface of PMA-treated …; experiment: competition FACS (II-23 assay, as in FIG. 4): LT-expressing cells, varied antibody, labelled LTβR-Ig; MFI of bound LTβR-Ig
Protocol: as §1

[7] = molecular target: T3, LTα1β2 on the surface of PMA-treated …; experiment: competition FACS (II-23 assay, as in FIG. 4): LT-expressing cells, varied competitor, labelled LTβR-Ig; MFI of bound LTβR-Ig
Protocol: as §1

[8] = molecular target: T3, LTα1β2 on the surface of PMA-treated …; experiment: competition FACS (II-23 assay): PMA-treated II-23 cells, varied competitor, then biotin-LTβR-Ig at 1 ug/ml, streptavidin-PE; MFI of bound LTβR-Ig
Protocol: as §1

[9] = molecular target: T4, Soluble Flag-tagged LTα1β2; experiment: SPR (Biacore 3000), Flag-LTα1β2 captured on anti-Flag M2; LTβR binding site 1
[10] = molecular target: T4, Soluble Flag-tagged LTα1β2; experiment: SPR (Biacore 3000), Flag-LTα1β2 captured on anti-Flag M2; LTβR binding site 2

Binder | IC50 nM, inhibition of IL-8 release [1] | Maximum % Inhibition of IL-8 release [1] | binding result [2] | potency in an II-23 assay (% blockade) [3] | Maximum % Inhibition [4] | IC50 (read off the curve) [5] | IC50 (read off the curve) [6] | IC50 (read off the curve) [7] | IC50 (read off the curve) [8] | Kd [9] | Kd [10]
9B4 (antibody, V domains shown, Murine monoclonal antibody, kappa light chain; also called LT 9B4; LT9B4) VH: QVTLKESGPGILQPSQTLSLTCSFSGFSLSTSGMGVSWIRQPSGKGLEWLAHIYWDDDKRYNPSLRSRLTISKDTSRNQVFLKITSVDTADTATYYCARREGYYGSSFDFDVWGAGTTVTVSS VL: QIVLSQSPAILSASPGEKVTMTCRASSSVSYMIWYQQKPGSSPKPWIYATSSLASGVPTRFSGSGSGTSYSLTISRVEAADAATYYCQQWSYNPLTFGAGTKLELK | 0.6 nM | 95% | no binding | > 90% | 99% | ~0.9 nM | – | – | – | – | –
LT105 (P2E9.7) (antibody, IgG1, V domains shown, The humanized versions were tested only for solubility; also called mAb LT105) VH: DVQLQESGPGLVKPSQSLSLTCSVTGYSITSGYYWNWIRQFPGNKLEGMGYISYDGSNNYNPSLKNRISITRDSSKNQFFLKLNSVTAEDSGTYYCARDAYSYGMDYWGQGTSVTVSS VL: DIVLTQSPASLAVSLGQRATISCRASESVDNYGISFMHWYQQKPGQPPKLLIYRASNLESGIPARFSGSGSRTDFTLTINPVETDDVATFYCQQSNKDPYTFGGGTKLEIK | 1.06 nM and 0.52 nM | 100% | no binding | > 90% | 97% | ~1 nM | ~0.06 µg/mL | – | – | – | –
A1D5 (antibody, V domains shown, Murine monoclonal antibody, kappa light chain; also called mAb A1D5) VH: EVQLQQSGPELVKPGASVKISCKASGYSFTGYFMNWMRQSHGKSLEWIGRINPYNGDSFYNQKFKDKATLTVDKSSTTAHMELLSLTSEDSAVYYCGRGYDAMDYWGQGTSVTVSS VL: DIQMTQTTSSLSASLGDRVTISCRASQDISNFLTWYQQKPDGTVKLLIYYTSKLHSGVPSRFSGSGSGTDYSLTISNLEPGDIATYYCQQVSKFPWTFGGGAKLEIK | 2.5 nM | 94% | no binding | > 90% | 92% | – | ~0.6 µg/mL | – | – | – | –
A0D9 (antibody, V domains shown, Murine monoclonal antibody, kappa light chain; also called mAb A0D9; AOD9) VH: QVQLKQSGPGLVQPSQSLSITCTVSGFSLSTYGVHWVRQFPGKGLEWLGVIWRGGNTNYNAAFMSRLTISKDNSKSQVFFKMNSLQAKDTAIYYCVRNQIYDGYYDYAMDYWGQGTSVTVSS VL: DIKMTQSPSSMYASLGERVTITCKASQDINTYLNWLQQKPGKSPKTLIYRANRLVDGVPSRFSGRGSGQDYSLTISSLEYEDVGIYYCLHYDAFPWTFGGGTKLEIK | 1.67 nM | 94% | no binding | > 90% | 92% | – | ~0.2 µg/mL | – | – | – | –
LTβR-Ig (Fc fusion, UniProt P36941 31-227, looked up, biotin label in the II-23 assay (sites not given), also called LTBR-Ig; LTbR-Ig; not shown: Ig (Fc) part) QAVPPYASENQTCRDQEKEYYEPQHRICCSRCPPGTYVSAKCSRIRDTVCATCAENSYNEHWNYLTICQLCRPCDPVMGLEEIAPCTSKRKTQCRCQPGMFCAAWALECTHCELLSDCPPGTEAELKDEVGKGNNHCVPCKAGHFQNTSSPSARCQPHTRCENQGLVEAAPGTAQSDTTCKNPLEPLPPEMSGTMLM | – | – | – | – | – | – | – | ~0.03 µg/mL | ~0.8 nM | – | –
monomeric LTβR (receptor, UniProt P36941 31-227, looked up, Injected at 20 µM in the Biacore assay; also called LTbR) QAVPPYASENQTCRDQEKEYYEPQHRICCSRCPPGTYVSAKCSRIRDTVCATCAENSYNEHWNYLTICQLCRPCDPVMGLEEIAPCTSKRKTQCRCQPGMFCAAWALECTHCELLSDCPPGTEAELKDEVGKGNNHCVPCKAGHFQNTSSPSARCQPHTRCENQGLVEAAPGTAQSDTTCKNPLEPLPPEMSGTMLM | – | – | – | – | – | – | – | – | – | ~50 nM | ~1500 nM
